Laboratory results taken from the nanobody polyreactivity screen of Harvey et al. (2022).

Test: yeast display, Sf9 membrane polyspecificity reagent, FACS + sequencing; frameworks hold sequencing errors
How it was run: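 Nanobodies came from a synthetic yeast display library in Saccharomyces cerevisiae BJ5465, induced with galactose for 36–48 hours and stained for 1 hour at 4 °C with 10% biotinylated, detergent-solubilized Sf9 membrane reagent. Cells were enriched on streptavidin microbeads and then FACS-sorted, with low and high (top ~1%) gates set on anti-HA fluorescence for expression and streptavidin fluorescence for reagent binding. Each polyreactivity label reflects the gate a clone came from. Genes were amplified by colony PCR, sequenced by MiSeq 2 × 250 and filtered by CDR length.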

Row | Sequence | polyreactivity (PSR sort gate)
1 | QFQLVDSGGGLVQAGGSLRLSCAASGRNYRLYAMGWSRQAPRKERELVAAITRGGRTNYAYSVKGRFTISRDNAMNTVYLQMNSLKPEDTAVYYCAARFVERDTDYYYWGQGTQVTVSS | low polyreactivity
2 | QLQLEDSAGGLVQAGGSLRLSFAASGFIFDPNAIGWYRQAPAKEREFVAAIRTSGGSTYYADSVKGRFTISRDNAKNTVYLQMNSLKPEDPAVYYCAAKGRYADWSGYGYWGQGTQVTVSS | high polyreactivity
3 | QVQLVESVGGLVQAGGSLRLSCAASGSIFSWYAMGWYRQAPGNARELVAAIRRGGSTYYADSVKGRFTISRDNATNTVYLQMNSLKPEDTAVYYCADRVYTAASRGRGDYWGQGTQVTVSS | low polyreactivity
4 | QVQLVESGGGLVQAGGSLRLSCAASGRTFAWYAMGWYRQAPGKERELVATITSRGGSTYYADSVKGRFTISRDNAKNTVYLQMNSLKPEDTAVYYCAAQSFWRPHQYDYWGQGTQVTVSS | low polyreactivity
5 | QVQLEESAGGLVQAGGSLRLSCAASGFTFRRYARGWYRQAPGKERELVAAISSRGGSTYYADSVKGRFTISRDNAKNTGYLQMKSLKPEDTAVYYCNRDAWGGTDLLGYNYWGHGTQVTVSS | high polyreactivity
6 | QVQLVESGGVLVQAGGSLRLSCAASGGTFGVYTMGWYRQSPGKERDLVAAISWSGGSTYYADSVKGRFRISRDNAKNTVYLQINSLKPEDTAVYYCAARLKYGRIGVDHWGQGTQVTVSS | high polyreactivity
7 | QVQLVESGGGLVQAGGSLRLSCAASGSTFFYNAMGWYRQAPGKERELVAAITVTGTSTYYADSVKGRFTISRDNAKNTVYLQMNSLKPEDTGVYYCNTSLKRRRLRFNYWGQGTQVTVSS | low polyreactivity
8 | QDQLVESGGGLDQAGGSLRLSCAASGRIFYPYTMGWYRQAPGKERELVAANTRSAASTHYADSVKGRFTISRDNAKNTVYLQMNSLKPEDTAVYYCAADDRGSSYGHFTVEYGYWGQGTQVTVSS | low polyreactivity
9 | QVQLVESGGGLVQAGGSLRLSCAASGSIFKGYSMGWYRQAPGKERELVAAITIDGSTYYADSVKGRFTISRDNAKNTVYLQMNSLKPEDTAVYYCAAVYLWYGSWPLHFAAYDYWGQGTQVTVSS | low polyreactivity
10 | LVQLQESGGGLVQAGGSLRLSCAASGTISPGGYMGWYRQAPGKERELVASINVGGSTNYADSVKGRFTISRDNAKNTVYLQMNSLKPEDTAVYYCAVWGRNRLQLSYWGQGTQVTVSS | low polyreactivity
11 | QVQLVESGGGLVQAGGSLRLSCAASGIIFKGYPMGWYRPAPGKERELVAGISSGGTTYYADSVKGRFTISRDNAKITVYLQMNSLKPEDTAVYYCGAGPRRSYRFDYWGQGTQVTVSS | high polyreactivity
12 | QVQLVESGGGLVQAGGSLRLSCAASGSTFKYNAMGWYRQAPGKERELVASISRSGGSTYYADSVKGRFTISRDNAKNTVYLQMNSLKPEDTAVYYCAVRVSSHPVYHYNYWGQGTQVTVSS | high polyreactivity
13 | QVQLVESGGGLVQAGGSLRLTCAASGFIFQYYAMGWYRQAPGKEREFVAAISSSGTSTYYADSVKGRFTISRDNAKNTVYLQMNSLKPEDTAVYYCAAREAGLYWLYYPGLRYYYWGQGTQVTVSS | high polyreactivity
14 | QVQLVESGGGLVQAGGSLRLSCAASGRTFYWNAMGWYRQAPGKERELVAAIRWRGGNTYYADSVKGRFTISRDNAKNTVYLQMNSLKPEDTEVYYCNKYGYKGGVGYDYWGQGTQVTVSS | high polyreactivity
15 | QVQLVESGGGLVQAGGSLRLSCAASGFTFDYNAMGWSRQAPGKERELVAAISYSDDSTYYADSVKGRFTISRDNAKNTVYLQMNSLKPEETAVYYCAAYFGAYGYDYWGQGSQVTVSS | low polyreactivity
16 | QVQLVESGGGLVQAGGSLRLSCAASGSIFWDYAMGWYRQAPGKERELVAAISSNGGNTYYADSVKGRFTISRDNAKNTVYLQMNSLKPEDTAVYYCAARAKRRHGYWGQGTQVTVSS | high polyreactivity
17 | QVQLVESGGGLVQAGGSLRLTCAASGRTFYYYAMGWYRQAPGKERELVAAISRSGGSTYYADSVKGRFTISRDNSKNTVYLQMNSLKPEDTAVYYCAKVAITSSGYWRYDYWGQGTQVTVSS | high polyreactivity
18 | QVQLVESGGGLVQAGGSLRLSCAASGRTLAYYVMGWYRQAPGKERELVAAISGRGGRTNYADSVKGRFTISRDNAKNTVYLQMNSLKPEDTAVYYCAAYRTGYNVDYYYWGQGTQVTVSS | high polyreactivity
19 | QVQLVESGRGLVQAGGSLPLSCAASGRTFPSNTMGWYRPAPGKERELVAAINRSGGTTYYADSVKGRCTISRDKAKNTVYLQINSLKPEDTAVYYCAVLSRYKACRKYDYWGQCTQVTVSS | high polyreactivity
20 | QFQLVESGGGSVQAGGSLRLSCAASGSTFDYNMGWYRQAPGKERELVATIRSDGRTNYADSVKGRFTISRDNAKNTVYLQMNSLKPEDTAVYYCAADVYAYVDDFGGYDYWGQGTQVTVSS | low polyreactivity
21 | QVQLVASGGGLVQAGASLRLSCAASGFTFSLYGLGGYRQAPGKERELVAALRSGGSTNYADSVKGRFTISRDNAKNTVYLQLNSLKPEDTAVYYCATDIHSVLNNRVKHDYDYWGQGTQVTVSS | low polyreactivity
22 | QVQHVESGGGLVQAGGSLRLSCAASGRTFGLNAMGWYRQAPGKERELVAAISGSGGRTYYADSVKGRFTISRDNAKNTVYLQMNSLKPEDTAVYYCARVPSGQLEYDYWGQGTQVTVSS | high polyreactivity

Row | Sequence | polyreactivity (PSR sort gate)
23 | QVQLEESGGGLVQAGGSLRLSCAASGSTFFIYAMGWYRQAPGKEREMVAAISGSGGTTYYADSVKGRFTISRDNAKNTVYLQMNSLKPEDTAVYYCAARTFSAFWRGGYDYWGQGTQVTVSS | low polyreactivity
24 | QVQLVESGGGLVQAGGSLRLICAASGRTFSVNDMGWYRQAPGKERELVAAISFSGGSTYYADSVKGRFTISRDNAKNTVYLQMNSLKPEDTAVYYCAAEAYPSWFYVITGFGIYDYWGQGTQVTVSS | high polyreactivity
25 | QVQLVESGGGLVQAGGSLRLSCAASGRIFAYYAMGWYRQAPGKERELVAAITRRSGDTTYYADSVKGRFTISRDNAKNTVYLQMNSLKPEDTAVYYCAARNPSFSSQYYSWGQGTQVTVSS | high polyreactivity
26 | QVHLVESGGGLVQAGGSLRLSCAASGSTFYANAMGWYRQAPGKDRELVAVIRWSGGSTYYADSVKGRFTISRDNAKNTDYFQINSLKPEDTAVYYCNADFYRVAYLRRYSHFDYWGQGTQVTVSS | high polyreactivity
27 | QVQLVESGGGLVQAGGSLRLSCAASGSTFYIYAMGWYIQAPGKERELVAAISTTDGTTYYADSVKGRFTISRDNAKNTVYLQMNSLKPEDTAVYYCAAEWFGSVQPAYDYWGQGTQVTVSS | high polyreactivity
28 | QVQLVESGGGLVQAGGSLRLSCAASGRTIEGNVMGWYRQAPGKERELVAAITRTAGSTYYADSVKGRFTISRDNAKNTVYLQMNSLKPEDTAVYYCAVEGIYRWYDYSWYYTSTYDYWGQGTQVTVSS | low polyreactivity
29 | QVHLVESGAGLDQAGVRLRLSCAPSGTTFDYNTMGWYRQAPGKERELVASINNSGGSTYYADSVKGRFTISRDNAKNTVYLQMISLKPVDTAVYYCAAVSYRRHFGPYNYWGQGTQVTVSS | low polyreactivity
30 | QVQLVESGGGLVQAGGSLRLSCAATGLTFPQYAMGWYRQAPGKEREIVAAIRSSDDRTYYADSVKGRFTISRDNAKNTVYLQLNSLKPEDTAVYYCAARVGKIGYKPRMDYWGQGTQVSVSS | high polyreactivity
31 | QVQLVESGGGLVQAGGSLRLSCAASGSIFYGNAMGWYRQAPGKERELVAGISWSGGSTYYADSVKGRFTISRDNAKNTVYFQMNSLKPEDTAVYYCATVADEPRAYSGYEESDYWGQGTQVTVSS | low polyreactivity
32 | QVQLVESGGGLDQAGGSLRLSCAASGRTFYSYAMGWYRQAPGKERELVAAITSGGRTKYADSVKGRFTISRDNAKNTVYLQMNSLKAEDTAVYYCAADRVSYYTTPYDYWGQGTQVTVSS | high polyreactivity
33 | QVQLVESGGGLDQAGGSLRLSCAASGSIFDYYTMGWYRQAPGKERELVASITQSGGSTYYADSVKGRFTISRDNAKNTVYLQMTSLKPEDTAVYYCAADGRYVRIRGDYWGQGTQVTVSS | low polyreactivity
34 | QVQLVESGGGLVQAGGSLRLSCAASGRNFRRYTMGWYRQAPGKERELVATISSGGSTYADSVKGRFTISRDNAKNTVYLQMNSVKPEDSAVYYCAAQTWGSGYGNIGRRRHDYWGQGTQVTVSS | high polyreactivity
35 | QVQLVESGGGLVQAGGSLRLSCAASGSIFGTNTMGWYRQAPGKERELVAAISGGGSTYYADSVKGRFTISRDNAKNTVYLQMNSLKPEDTAVYYCAVRSLRVDKYGYWGQGTQVTVSS | high polyreactivity
36 | QVQLVESGGGLVQAGGSLRLSCAASGSIFVPYAMGWYRQAPGKERELVAAITYSDGSTYYADSVKGRFTISRDNEKNTVYLQMNSLKPEDTAVYYCATYPQYYFRYDYWGQGTQVTVSS | high polyreactivity
37 | QVQLVESGGCLVQAGGSLRLSCAASGSIFRYNIGWYRQAPGKERELVAAISSSGVRTYYADSVKGRFTISRDNAKNTVYLQMNSLKPEDTAVYYCAAASGGRWRVGYWGQGTQVTVSS | high polyreactivity
38 | QVQLVESGGGLVQAGGSLRLSCAASGSIFQVYAMGWYRQAPGKERELVATITSGGSTYYADSVKGRFTISRDNAKNTVYLQMNSLKPEDTAVYYCAAGVVYWWTGYPTISTYDYWGQGTQVTVSS | low polyreactivity
39 | QVQLVESGGGLVQAGGSLRLSCAASGSNFQRYTMGWYSQAPGKERELVAAITSRSGRTYYADSVKGRFTISRDNAKNTVYLQMNSLKPEDTAVYYCATVPYDQTRGYKYDYWGQGTQVTVSS | high polyreactivity
40 | QVQLVESGGGLVQAGGSLRLSCAASGSIFVHNAMGWYRQAPGKERELVAAITWSGGSTYYADSVKGRFTISRDNAKNTVYLQMNSLKPEDTAVYYCAAEDVAAQWAYESPTSYWYYYIYEYWGQGTQVTVSS | low polyreactivity
41 | QVQLVESRGGLVQAGGSLRLSCAASGSTLYLYALGWYRQAPGKERELVAAISQSGTRTYYADSVKGRFTISRDNAKNTVYLQMNSQKPEDTAVSYCAAGRYQPYSYDYWGQGTQVTVSS | high polyreactivity
42 | QVQLVESGGGLVQAGGSLRLSCAASGSNFSYTMGWYRQAPGKERELVAAITSGGITYYADSVKRRFTISRDNAKNTVYLQMNCLKPEDTAVYYCNAYYPYGLASFYYWGQGTQVTVSS | low polyreactivity
43 | QVQLVESGGGLVQAGGILRLSCAASGFTFNRNAMGWYRQAPGKERELVAAISWSGTSTYYADSVKGRFTISRDNAKTTVYLQMNSLKPEDTAVYYCAARVKGQWNTYDSWGQGTQVTVST | high polyreactivity
